Assay results published in publication PMC10163261.

Columns and labels:
K5:I-E^k = K5:I-E^k (UniProt P04230); assay: BFP force-dependent bond lifetime measurement; conditions: solid fitted curve (TCR-pMHC-II model) read at force = 10 pN; TCR on hybridomas; parent: est. 1.6; read off a plot
3.L2 TCR = assay: bond lifetime vs force measurement (method not named for this panel); conditions: solid fitted curve (TCR-pMHC-II model) read at force = 10 pN; TCR on CD4-CD8+ naive T cells; parent: est. 2.3; read off a plot

Sequence of UniProt P04230 (P04230 whole entry, looked up): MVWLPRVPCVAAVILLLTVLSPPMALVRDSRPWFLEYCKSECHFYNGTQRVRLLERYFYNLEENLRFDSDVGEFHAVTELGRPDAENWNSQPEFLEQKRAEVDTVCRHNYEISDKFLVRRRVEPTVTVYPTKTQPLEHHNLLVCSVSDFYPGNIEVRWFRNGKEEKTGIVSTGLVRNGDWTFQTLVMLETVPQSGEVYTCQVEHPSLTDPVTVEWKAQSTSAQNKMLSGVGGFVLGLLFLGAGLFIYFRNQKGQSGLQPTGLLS

| Substance | other: bond lifetime (K5:I-E^k) | other: bond lifetime (3.L2 TCR) |
| --- | --- | --- |
| hybrid 2B4 TCR with its mouse Vαβ fused with the Cαβ of the human LC13 (WT) (from UniProt P01848) β:G182A; β:K183A | 1.3 s | – |
| hybrid 2B4 TCR with its mouse Vαβ fused with the Cαβ of the human LC13 (WT) (from UniProt P01848) β:H221A; β:N222A | 0.38 s | – |
| hybrid 2B4 TCR with its mouse Vαβ fused with the Cαβ of the human LC13 (WT) (from UniProt P01848) β:N222A; β:P223A | 2.2 s | – |

Second part, the substance after the results:

| other: bond lifetime (K5:I-E^k) | other: bond lifetime (3.L2 TCR) | Substance |
| --- | --- | --- |
| 0.15 s | – | hybrid 2B4 TCR with its mouse Vαβ fused with the Cαβ of the human LC13 (WT) (from UniProt P01848) β:N225A; β:H226A |
| – | 1.1 s | Hb:I-Ek T72 |
